{"source": "IntAct's records for PubMed 33990585", "parents": {"B1": {"name": "Mitochondrial import receptor subunit TOM70 (Homo sapiens), O94826 (parent)", "chain": "MAASKPVEAAVVAAAVPSSGSGVGGGGTAGPGTGGLPRWQLALAVGAPLLLGAGAIYLWSRQQRRREARGRGDASGLKRNSERKTPEGRASPAPGSGHPEGPGAHLDMNSLDRAQAAKNKGNKYFKAGKYEQAIQCYTEAISLCPTEKNVDLSTFYQNRAAAFEQLQKWKEVAQDCTKAVELNPKYVKALFRRAKAHEKLDNKKECLEDVTAVCILEGFQNQQSMLLADKVLKLLGKEKAKEKYKNREPLMPSPQFIKSYFSSFTDDIISQPMLKGEKSDEDKDKEGEALEVKENSGYLKAKQYMEEENYDKIISECSKEIDAEGKYMAEALLLRATFYLLIGNANAAKPDLDKVISLKEANVKLRANALIKRGSMYMQQQQPLLSTQDFNMAADIDPQNADVYHHRGQLKILLDQVEEAVADFDECIRLRPESALAQAQKCFALYRQAYTGNNSSQIQAAMKGFEEVIKKFPRCAEGYALYAQALTDQQQFGKADEMYDKCIDLEPDNATTYVHKGLLQLQWKQDLDRGLELISKAIEIDNKCDFAYETMGTIEVQRGNMEKAIDMFNKAINLAKSEMEMAHLYSLCDAAHAQTEVAKKYGLKPPTL"}}}
{"variants_of": "B1", "conditions": "with orf9b_sars2 orf9b"}
{"variant": "H583Q", "effect of a mutation on the interaction": "with no effect"}
{"variant": "E549A", "effect of a mutation on the interaction": "decreasing interaction strength"}
{"variant": "E549I", "effect of a mutation on the interaction": "decreasing interaction strength"}
{"variant": "E477A", "effect of a mutation on the interaction": "decreasing interaction strength"}
{"variant": "D545A", "effect of a mutation on the interaction": "decreasing interaction strength"}
